In CN112079918A (CANVEST WUHAN BIOTECHNOLOGY CO LTD, dated 2020):

How the values were obtained:
[1] = target: 17SF HA (A/Guangdong/17SF003/2016) hemagglutinin protein (influenza A virus A/Guangdong/17SF003/2016 (H7N9)); assay: ELISA, P51C05 IgG on HA protein
[2] = target: SH02 HA (A/Shanghai/2/2013 H7N9) hemagglutinin protein (influenza A virus A/Shanghai/2/2013 (H7N9)); assay: ELISA, P51C05 IgG on HA protein
BSA = BSA (UniProt P02769 25-607); assay: ELISA
BSA, sequence (P02769 25-607 limits assumed): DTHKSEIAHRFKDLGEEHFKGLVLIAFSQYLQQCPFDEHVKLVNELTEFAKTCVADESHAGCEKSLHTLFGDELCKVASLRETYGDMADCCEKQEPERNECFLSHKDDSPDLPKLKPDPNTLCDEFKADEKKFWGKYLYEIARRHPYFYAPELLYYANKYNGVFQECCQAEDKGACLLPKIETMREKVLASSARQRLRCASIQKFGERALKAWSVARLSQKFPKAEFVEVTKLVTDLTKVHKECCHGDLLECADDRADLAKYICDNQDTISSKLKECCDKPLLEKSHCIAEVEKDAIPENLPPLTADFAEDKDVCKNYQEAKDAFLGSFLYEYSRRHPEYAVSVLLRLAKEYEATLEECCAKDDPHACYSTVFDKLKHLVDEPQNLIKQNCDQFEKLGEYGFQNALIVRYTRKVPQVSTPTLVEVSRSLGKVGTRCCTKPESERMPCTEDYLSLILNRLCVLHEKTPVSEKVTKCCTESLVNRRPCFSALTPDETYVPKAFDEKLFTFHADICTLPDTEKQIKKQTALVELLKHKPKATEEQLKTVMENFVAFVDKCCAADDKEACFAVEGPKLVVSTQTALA

B1: H7N9病毒特异性识别抗体P51C05 (IgG形式) (antibody, V domains shown)
VH: EVQLVQSGSELKKPGASVKVSCKASGYTFTSYTMNWVRQAPGQGLEWMGWINTNTGNPTYAQGFTGRFVFSLDTSVSTAYLQISSLKTEDTAVYYCARGVYGMDVWGQGTTVTVSS
VL: EIVLTQSPGTLSLSPGERATFSCRASQTVSNYLAWYQQKVGQAPRLLIYDASNRATGIPARFSGSGSGTDFTLTISSLEPEDFAVYYCQQRYNWPLTFGGGTKVEIKG
- EC50 [1]: < 1 nM
- EC50 [2]: < 1 nM
- binding result (BSA): no binding
